How the values were obtained:
Assay type in all cases: in vivo
[1] = test system: Glyphosate-resistant Palmer amaranth plants having 49 or 63 copies EPSPS; assay: salicylic acid pretreatment before dsRNA and glyphosate (Example 15); details: 15 millimolar SA 1, 5, or 24 hours before dsRNA; 7 days after glyphosate
Protocol: Salicylic acid (SA) induces virus resistance in tobacco; see, e.g., Chivasa et al. (1997) Plant Cell, 19:547-557. Glyphosate-resistant Palmer amaranth plants having 49 or 63 copies EPSPS were pretreated with 15 millimolar SA. A solution of the four oligonucleotide-size “short” EPSPS dsRNA molecules (described in Example 1) was applied by hand at 1, 5, or 24 hours after treatment with SA, followed 72 hours later by spraying with glyphosate (1682 g acid equivalent per hectare of Roundup® WeatherMAX® brand herbicide).

[2] = test system: phytoene desaturase (PDS) gene in tomato (Solanum lycopersicum); assay: topical PDS dsRNA on tomato, bleaching and stunting (Example 25); details: 2.5 micromolar, 40 microliters per plant
Source text: A 201 nucleotide dsRNA polynucleotide with an anti-sense strand capable of hybridizing to the RNA encoded by the sequence […] […] […] (SEQ ID NO:60) which correspond to the nucleotides at positions 1724-1923 of the mRNA transcribed from the tomato PDS gene sequence (SEQ ID NO:59) was synthesized by RT PCR using oligonucleotide primers with the sequences […] (SEQ ID NO:61, sense primer) and […] (SEQ ID NO:62, anti-sense primer). A 2.5 micromolar dsRNA solution was made with the 201 nucleotide dsRNA polynucleotide (SEQ ID NO:60) in 0.01% SILWET L-77® brand surfactant in 5 millimolar sodium phosphate buffer, pH 6.8.
Three-week old tomato seedlings were treated as follows. Two fully expanded leaves were dipped into a freshly made 0.1% SILWET L-77® brand surfactant solution in double-distilled water for a few seconds. The leaves were allowed to dry for 30 minutes to 1 hour. Each plant was then treated by applying 20 microliters dsRNA solution to the top surface of two SILWET® brand surfactant-treated leaves (total 40 microliters per plant). Control plants were treated with buffer. The plants were kept in a growth chamber for observation. FIG. 30 depicts the systemic silencing of the target gene PDS as evidenced by bleaching of the dsRNA-treated plants 30 days after topical treatment.

[3] = test system: Glyphosate-sensitive Palmer amaranth (Amaranthus palmeri) plants; assay: HPPD, PPO and TIF anti-sense ssDNA with mesotrione, fomesafen or atrazine, plant height (Example 28, Tables 18 and 19); details: four days after herbicide treatment
Protocol: The herbicidal activity of ssDNA polynucleotides that target the enzymes […] and protoporphyrinogen oxidase (PPO), and a transcription initiation factor (TIF), and their effect on the herbicide activity when used in combination with the herbicides mesotrione, fomesafen, and atrazine in Palmer amaranth was investigated.
Glyphosate-sensitive Palmer amaranth (Amaranthus palmeri) plants were grown in 4-inch square pots with Sun Gro® Redi-Earth seedling mix containing 3.5 kg/cubic meter Osmocote® 14-14-14 fertilizer in a greenhouse with 14 h photoperiod and a daytime temperature of 30 degrees Celsius and night temperature of 20 degrees Celsius. The plants were sub-irrigated as necessary.
Some plants were left untreated and were used as controls. […] Crop oil concentrate (COC) at 1% was added to all herbicide treatments.
Plant height was determined at four days after herbicide treatment. Data were collected from one experiment with four replications per treatment.

[4] = test system: glyphosate-resistant Palmer amaranth plants having 16 copies of EPSPS; assay: EPSPS tiling-segment polynucleotides, plant height 11 days after herbicide (Example 21); details: 0.01 nanomole DNA/plant; glyphosate 840 g ae/ha 48 hours later
Source text: Twelve dsRNAs of approximately 250 bp each and having one strand of the dsRNA corresponding to the EPSPS tiled DNA sequences of SEQ ID NOS:41-52 (Table 8) were designed to cover in a tiling fashion the full coding sequence and part of the 5′ and 3′ untranslated regions of the Palmer amaranth EPSPS gene, as depicted in FIG. 25A.
The four oligonucleotide-size “short” EPSPS dsRNA molecules as described in Example 1 and FIG. 1 are located in the tiling segments 2, 3, 4, and 8 respectively, and are shown as light grey bars within those segments. The polynucleotides were synthesized in vitro transcription using a pBR322 vector with the EPSPS polynucleotides inserted at EcoRI and BamHI cloning sites; plasmid DNA was isolated with Qiagen Maxi prep kits and digested with EcoRI and BamHI restriction enzymes. The digested DNA solution was used in the treatment of the plants without further purification. […]

Molecule: O=C(O)c1ccccc1O [Salicylic acid]
- improvement of the effects of the dsRNAs and glyphosate activity (plant height) [1]: No improvement

B1: 201 nucleotide dsRNA polynucleotide: dsRNA to positions 1724-1923 of tomato PDS mRNA (SEQ ID NO:59) (nucleic acid)
chain: TCGCAGCGACTCAGAAATTATTGATGCAACGATGAAGGAACTAGCAACGCTTTTTCCTGATGAAATTTCAGCAGATCAAAGCAAAGCAAAAATATTGAAGTACCATGTTGTCAAAACTCCGAGGTCTGTTTATAAAACTGTGCCAGGTTGTGAACCCTGTCGGCCTTTACAAAGATCCCCAATAGAGGGGTTTTATTTAG
- growth compared to control plants [2]: severely stunted
- systemic silencing of PDS (FIG. 30) ([2]; 30 days after treatment): bleaching

B2: HPPD anti-sense ssDNA oligonucleotides: 8 HPPD anti-sense ssDNA oligonucleotides (SEQ ID NOS:141-148) (nucleic acid)
antisense 1: TCCGTAGCTTACATACCGAAG
antisense 2: TCCAAGTGAATAGGAGAAACA
antisense 3: AGCAGCTTCTGCGTCTTCTAC
antisense 4: ACAGCACGCACGCCAAGACCG
antisense 5: CGATGTAAGGAATTTGGTAAA
antisense 6: CGAGGGGATTGCAGCAGAAGA
antisense 7: GTAGGAGAATACGGTGAAGTA
antisense 8: GACCCCAAGAAAATCGTCTGC
modifications: DNA, backbone and methylation of C not given here
- growth reduction relative to the buffer-surfactant control [3]: 32%

B3: combination of tiling segments 2, 5, 8, and 11: SEQ ID NOS: 42, 45, 48, 51 applied together (nucleic acid, listed as Amaranthus palmeri)
chain 1: CACCAACCCACTTTCTCTTTGCCCACCAAAACTTTGGTTTGGTAAGAACTAAGCCCTCTTCTTTCCCTTCTCTCTCTTAAAAGCCTAAAATCCACCTAACTTTTTCAGCCAACAAACAACGCCAAATTCAGAGGAAGAATAATGATGGCTCAAGCTACTACCATCAACAATGGTGTCCATACTGGTCAATTGCACCATACTTTACCCAAAACCCAGTTACCCAAATCTTCAAAAACTCTTAATT
chain 2: GAGGGTTGTGGTGGTCTGTTTCCTGTTGGTAAAGATGGAAAGGAAGAGATTCAACTTTTCCTTGGTAATGCAGGAACAGCGATGCGCCCATTGACAGCTGCGGTTGCCGTTGCTGGAGGAAATTCAAGTTATGTGCTTGATGGAGTACCAAGAATGAGGGAGCGCCCCATTGGGGATCTGGTAGCAGGTCTAAAGCAACTTGGTTCAGATGTAGATTGTTTTCTTGGCACAAATTGCCCTCCTGTTCGGG
chain 3: ACAAGCAGTTTACAGGGTGATGTAAAATTTGCCGAAGTTCTTGAGAAGATGGGTTGCAAGGTCACCTGGACAGAGAATAGTGTAACTGTTACTGGACCACCCAGGGATTCATCTGGAAAGAAACATCTGCGTGCTATCGACGTCAACATGAACAAAATGCCAGATGTTGCTATGACTCTTGCAGTTGTTGCCTTGTATGCAGATGGGCCCACCGCCATCAGAGATGTGGCTAGCTGGAGAGTGAAGGAAA
chain 4: TAATTATGAAATTCTTTGTATTATGTTTGTGAGATTTGAAGTAGCTTATAAATTACAATGTACTAAAGTCTAGAAATAAGTTATGTATCTTTTAAATCAATGAGAAATGCATACTTGAAAGGCTTGACCTTGTATTTGTGACCTAAAGAGTACTAACTTTGGAGTTTCCAACTCATTTGTTTATCTCATTTTTTTTTAATTTTTGATTTAAATTGTTTATTTTTATGAGTAATCATGTATCTTTCTTATTCTAACCAAATGTAATACTCCTTC
- efficacy (above-ground height 11 days after herbicide; FIGS. 25B, 25C) [4]: greatest efficacy

B4: combination of tiling segments 7, 8, and 9: SEQ ID NOS: 47, 48, 49 applied together (nucleic acid, listed as Amaranthus palmeri)
chain 1: TTGAAATGACAATAAAGTTGATGGAACGCTTTGGAGTATCCGTAGAACATAGTGATAGTTGGGACAGGTTCTACATTCGAGGTGGTCAGAAATACAAATCTCCTGGAAAGGCATATGTTGAGGGTGATGCTTCAAGTGCTAGCTACTTCCTAGCCGGAGCCGCCGTCACTGGTGGGACTGTCACTGTCAAGGGTTGTGGAACAAGCAGTTTACAGGGTGATGTAAAATTTGCCGAAGTTCTTGAGAAGAT
chain 2: B3 chain 3
chain 3: AGATGGGCCCACCGCCATCAGAGATGTGGCTAGCTGGAGAGTGAAGGAAACCGAACGGATGATTGCCATTTGCACAGAACTGAGAAAGCTTGGGGCAACAGTTGAGGAAGGATCTGATTACTGTGTGATCACTCCGCCTGAAAAGCTAAACCCCACCGCCATTGAAACTTATGACGATCACCGAATGGCCATGGCATTCTCTCTTGCTGCCTGTGCAGATGTTCCCGTCACTATCCTTGATCCGGGATGC
- efficacy (above-ground height 11 days after herbicide; FIGS. 25B, 25C) [4]: greatest efficacy

Source: patent publication US9121022B2, “Method for controlling herbicide-resistant plants” (priority 2010, dated 2015)
